Measured values: publication PMC9440770

Molecular target: fibrinogen (UniProt P02671)
Assay: SPR

Sequence of UniProt P02671 (P02671 36-866, chain 1 of 3): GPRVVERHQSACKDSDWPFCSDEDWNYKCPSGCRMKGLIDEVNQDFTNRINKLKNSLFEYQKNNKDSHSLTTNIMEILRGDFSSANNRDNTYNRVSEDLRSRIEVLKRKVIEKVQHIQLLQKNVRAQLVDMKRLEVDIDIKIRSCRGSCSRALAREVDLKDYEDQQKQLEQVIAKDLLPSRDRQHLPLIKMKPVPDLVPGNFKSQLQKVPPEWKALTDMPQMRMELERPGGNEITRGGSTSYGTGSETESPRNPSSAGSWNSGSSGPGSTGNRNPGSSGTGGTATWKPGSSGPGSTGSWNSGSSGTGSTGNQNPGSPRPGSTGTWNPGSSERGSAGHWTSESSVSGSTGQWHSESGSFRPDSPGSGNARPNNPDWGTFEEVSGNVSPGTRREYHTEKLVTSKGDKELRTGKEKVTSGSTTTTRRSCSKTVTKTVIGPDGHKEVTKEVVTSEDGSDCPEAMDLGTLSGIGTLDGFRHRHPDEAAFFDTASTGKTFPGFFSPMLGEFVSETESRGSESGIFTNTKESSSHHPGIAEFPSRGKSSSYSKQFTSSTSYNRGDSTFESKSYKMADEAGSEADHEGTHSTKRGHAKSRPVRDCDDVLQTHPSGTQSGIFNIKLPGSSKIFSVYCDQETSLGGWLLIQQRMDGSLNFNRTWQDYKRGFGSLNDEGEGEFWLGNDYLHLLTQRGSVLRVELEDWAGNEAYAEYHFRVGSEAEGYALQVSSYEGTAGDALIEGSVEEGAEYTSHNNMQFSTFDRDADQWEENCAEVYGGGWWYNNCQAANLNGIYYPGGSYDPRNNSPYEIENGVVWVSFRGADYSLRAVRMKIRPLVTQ
Sequence of UniProt P02671 (P02675 45-491, chain 2 of 3, further chain): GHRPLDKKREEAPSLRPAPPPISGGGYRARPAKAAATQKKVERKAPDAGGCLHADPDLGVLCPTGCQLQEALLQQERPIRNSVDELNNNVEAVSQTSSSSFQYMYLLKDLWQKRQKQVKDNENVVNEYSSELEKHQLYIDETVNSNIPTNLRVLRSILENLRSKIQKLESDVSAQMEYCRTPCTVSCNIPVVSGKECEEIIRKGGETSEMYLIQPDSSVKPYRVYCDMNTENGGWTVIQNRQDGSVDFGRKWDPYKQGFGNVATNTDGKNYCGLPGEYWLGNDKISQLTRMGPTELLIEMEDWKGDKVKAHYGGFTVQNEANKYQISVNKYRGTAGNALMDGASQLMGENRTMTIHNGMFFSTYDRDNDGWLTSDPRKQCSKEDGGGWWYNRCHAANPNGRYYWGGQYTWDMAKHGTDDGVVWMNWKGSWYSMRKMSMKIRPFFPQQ
Sequence of UniProt P02671 (P02679 27-453, chain 3 of 3, further chain): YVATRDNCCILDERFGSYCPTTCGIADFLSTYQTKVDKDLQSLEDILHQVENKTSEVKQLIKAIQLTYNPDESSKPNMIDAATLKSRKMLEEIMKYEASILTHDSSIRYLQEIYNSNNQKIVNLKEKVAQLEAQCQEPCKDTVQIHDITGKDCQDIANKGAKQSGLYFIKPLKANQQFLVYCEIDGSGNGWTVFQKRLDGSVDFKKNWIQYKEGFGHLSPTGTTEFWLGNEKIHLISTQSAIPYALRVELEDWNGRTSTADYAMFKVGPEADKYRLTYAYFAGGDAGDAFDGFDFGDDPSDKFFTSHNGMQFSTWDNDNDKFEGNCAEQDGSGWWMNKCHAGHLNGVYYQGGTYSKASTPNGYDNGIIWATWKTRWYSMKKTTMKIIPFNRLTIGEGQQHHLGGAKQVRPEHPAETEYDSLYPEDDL

Kd [µM]	Binder
20	human αX I-domain (residues Q129 to G319), wild type (domain or fragment) QEQDIVFLIDGSGSISSRNFATMMNFVRAVISQFQRPSTQFSLMQFSNKFQTHFTFEEFRRSSNPLSLLASVHQLQGFTYTATAIQNVVHRLFHASYGARRDAAKILIVITDGKKEGDSLDYKDVIPMADAAGIIRYAIGVGLAFQNRNSWKELNDIASKPSQEHIFKVEDFDALKDIQNQLKEKIFAIEG
100	human αX I-domain I314G construct (domain or fragment) QEQDIVFLIDGSGSISSRNFATMMNFVRAVISQFQRPSTQFSLMQFSNKFQTHFTFEEFRRSSNPLSLLASVHQLQGFTYTATAIQNVVHRLFHASYGARRDAAKILIVITDGKKEGDSLDYKDVIPMADAAGIIRYAIGVGLAFQNRNSWKELNDIASKPSQEHIFKVEDFDALKDIQNQLKEKGFAIEG
